From the supplement of paper PMC12764529
± gives the half width of the 95% confidence interval.

experiment: folding stability dG unfold from chymotrypsin proteolysis; higher = more stable
How it was run: (§1)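 Unfolding free energy was derived, per protease or combined, against a sequence-predicted unfolded-state K50 and a shared folded-state K50, starting from K50 inferred by Bayesian fitting of sequencing counts. Digestion with trypsin and chymotrypsin was carried out on designed mini-proteins under 80 residues without cysteine in a PA-tagged cDNA display construct. Only designs with AlphaFold2 dimer inter-PAE above 15 were kept.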

| Sequence | folding stability dG unfold [kcal/mol] |
| --- | --- |
| SAGGSAGGSAGGDENDYYMVEIPIWRRNENGGWEPIFPIPIMVPKGAPKDVAKDILNNLSAGGSAGGSAGGS [r10_470_TrROS] | 0.324 ± 0.12 |
| SAGGSAGGSAGSFLIVVRFPNSTVLFDAPEDTDVDALKKAIKKLFNADIEVEVVPKEKPLSAGGSAGGSAGG [r11_805_TrMRF] | 1.55 ± 0.051 |
| SAGGSAGGSAGGSGAGTLITVTVGGKEVPVTVDPSSDRVSITLPEPTSLTLSVEDPARASAGGSAGGSAGGS [r10_1185_JUSTAS] | -0.602 ± 0.3 |
| SAGGSAIPFPPGAKVKKIEMHEKKDDNKPRYVMIIKWEGGNIMVFQMDPGDGNFKPIGWVPLDDLKSAGGSA [r15_777_TrROS] | 2.33 ± 0.058 |
| SAGGSLEEVARALARELGLPDVEVRDIPVEVLPNGTVRIPVTIVRPEAGEPLPPLEVELAPDEPLLSAGGSA [r2_137_JUSTAS] | -0.236 ± 0.15 |
| SAGGSAGGSAGKLKIKSVITFESEDDLIVKLIEVDDKVFAIVLDPKTGKPVKIIPDNEIFSAGGSAGGSAGG [r11_851_TrMRF] | 1.2 ± 0.13 |
| SKKKKIIKIDIKPEDIEKGIKAVREAIKKAKEAEPDTEVIIDFHFESDYPEKVKEIEDLFKKENIPLKIGSA [r9_1202_TrMRF] | 0.883 ± 0.048 |
| SAGGSAGGSASMTSSVSTSLNPDNPPVVLVTTTYPDGTVTLTVKDLSTGTTTSTTTTPLPSSAGGSAGGSAG [r3_299_JUSTAS] | 0.589 ± 0.043 |
| SAGMTIRIVVPKKDMSVEELAKKLKEELGLPEDAKVTIKVEKLPNGELVLTITVPSEEERKKIEELLKSAGG [r19_215_TrROS_Hall] | 2.91 ± 0.15 |
| SAGGEKVVLEIVLPPELENLTPEELEALKNITLPNGFKITDIELVEENGRLVIRITVDSPEAAEALLKSAGG [r13_269_TrROS_Hall] | 2.23 ± 0.056 |
| SAGGGKKNKIVAVDEEGNEIVFDIDADIDTVFEAIKKLFPNKEIEVDEVIEFEGYPDYVVVFVKIPKKSAGG [r13_832_TrMRF] | 2.59 ± 0.069 |
| SAGGSAKKPKPIYLKLTITLSEEEAKKLAEELAEELKKLFPDVEIVEIKVEKDENGNVTVTIYVRLSAGGSA [r15_718_TrROS_Hall] | 4.57 ± 0.14 |
| GLAPRVYEVDALVTDENGVPRLYRVLVVETPLPDGTYRAVAFARDLDTTETRVLTLVSDRAVIGPDVPLTAS [r1_14_TrMRF] | 2.24 ± 0.12 |
| SALDAKEIAEEFMKKFPPNFRDITVDVENTGNKRKIKIMFRMPNRYWTQEFDLDDGKIEIEPINPGQPLSAG [r14_737_TrROS] | 0.368 ± 0.15 |
| SADIKIDVTYRRSPGEGRYTMTVRVELPDGKKLAEIPITMPADDPGMSPRQMREWARPIVKKLAKEGLISAG [r14_120_TrROS] | 1.02 ± 0.1 |
| SAGGMKVEVEVDPETGELYLKIYFPETGEVALVKIDPKTKTAEVVGSTDFVKEALPELGINNPTLVPGSAGG [r13_511_TrMRF] | 1.59 ± 0.088 |

| Sequence | folding stability dG unfold [kcal/mol] |
| --- | --- |
| SAGGSAGGSAGGKEPKKVKVYLFNENGELIGVFELEVETLEELEEAVRKLGFLAVVEPESAGGSAGGSAGGS [r10_958_TrMRF] | 4.43 ± 0.069 |
| SAGGSAGGSAGKIVILVEPSVEELKAAAEALPGAKVTLEEVEVDGRKYLLATIELPPELLSAGGSAGGSAGG [r17_542_TrROS_Hall] | 2.27 ± 0.033 |
| SEIEIEPLTLDEPVEYRVPEGGFTITAYAAPGPLLVRVRIPGTGEEFEIAVPLGEPNWEEVAEAVVRAIRSA [r9_982_TrMRF] | 1.27 ± 0.086 |
| SAGGSAGGSPSVPPEWKVEIVEVTVHPDGSTVTAVIRFEDGSTVTVNSPEALARLVEGGNVVNSAGGSAGGS [r12_455_TrMRF] | 1.62 ± 0.11 |
| SAGGPPVTIMIRLPPLQEQLPPEWLEKLKNIRVPNGHPIKDIDVQPHNGRWVIMIKVDSPEQARDIIRSAGG [r13_269_TrROS] | 1.89 ± 0.053 |
| SAGGAMSSPVGTVTLTSPAGETVTITVYPGKTEVTTRPPDGSVTVTSLADKSVEEVIAELKAEGYEVLSSAG [r5_613_JUSTAS] | 2.99 ± 0.03 |
| SAGGSAGGSAGGSMIVLNVPREVAEKIKEELIKKGIDPEKVKVIYIEVPLPEEPPESILSAGGSAGGSAGGS [r10_602_JUSTAS] | 0.351 ± 0.099 |
| SAGGKNLKPIGTVTLTNPKGEKVEIVEFEGPVFVVLTPKDGSKKIVSAEGKSLEEILKELEKEGYEVEPSAG [r5_613_TrMRF] | 2.15 ± 0.081 |
| SAGGSAAPEDTLVEEEVEIVTEETDPKLGGKKIVTTKVKRLIRYFPEKGELEVETVETETTVYPNESAGGSA [r15_517_JUSTAS] | 0.416 ± 0.084 |
| SAGGSAGGSTLRLRFRTPDGRLFEIEAEVRPDPDGRVYRLLRIREYDPETDEWLERPFRLPILSAGGSAGGS [r12_57_TrMRF] | 3.83 ± 0.019 |
| KKKTIEIIFPENNLIIKIEVDEETGKELTEEEIKKLLEELFPGKDIEKMSIEEIAKRLASLPGVKKVEIYPS [r1_463_TrROS_Hall] | 1.57 ± 0.07 |
| SAGGSAGGSAGGYSAIIIFPTEFDNKLYYAAVELESPSEELHEGDIKSVILAPLNTPILSAGGSAGGSAGGS [r10_730_TrMRF] | 1.41 ± 0.043 |
| SAGGSAGGSAKKITIYLPNAEVVEVEYDEETDVITIRVKNEDGSEYEFRFYPDGSVEIRPVSAGGSAGGSAG [r3_348_TrROS_Hall] | 3.65 ± 0.15 |
| SAGGKEVKIKIETKTLPNGVKVVKMTVELPDGKTVEMVMVENKKTGKMVMFEVKLDKNGKIVEIKAFPSAGG [r13_323_TrROS_Hall] | 3.43 ± 0.16 |
| SAGGSASIEIPFNGHPYKIEIDDVEPPDEQYRAKAEIRFPGNGKKIPVEGDMPKSDAEDAIKEAIRSAGGSA [r15_944_TrROS] | 0.49 ± 0.16 |

experiment: folding stability dG unfold from trypsin proteolysis; higher = more stable
How it was run: as §1

| Sequence | folding stability dG unfold [kcal/mol] |
| --- | --- |
| SAGGSAGGSAGGDENDYYMVEIPIWRRNENGGWEPIFPIPIMVPKGAPKDVAKDILNNLSAGGSAGGSAGGS [r10_470_TrROS] | 0.361 ± 0.1 |
| SAGGSAGGSAGSFLIVVRFPNSTVLFDAPEDTDVDALKKAIKKLFNADIEVEVVPKEKPLSAGGSAGGSAGG [r11_805_TrMRF] | 1.75 ± 0.058 |
| SAGGSAGGSAGGSGAGTLITVTVGGKEVPVTVDPSSDRVSITLPEPTSLTLSVEDPARASAGGSAGGSAGGS [r10_1185_JUSTAS] | 0.593 ± 0.1 |
| SAGGSAIPFPPGAKVKKIEMHEKKDDNKPRYVMIIKWEGGNIMVFQMDPGDGNFKPIGWVPLDDLKSAGGSA [r15_777_TrROS] | 0.508 ± 0.07 |
| SAGGSLEEVARALARELGLPDVEVRDIPVEVLPNGTVRIPVTIVRPEAGEPLPPLEVELAPDEPLLSAGGSA [r2_137_JUSTAS] | -0.0103 ± 0.14 |
| SAGGSAGGSAGKLKIKSVITFESEDDLIVKLIEVDDKVFAIVLDPKTGKPVKIIPDNEIFSAGGSAGGSAGG [r11_851_TrMRF] | 0.0652 ± 0.13 |
| SKKKKIIKIDIKPEDIEKGIKAVREAIKKAKEAEPDTEVIIDFHFESDYPEKVKEIEDLFKKENIPLKIGSA [r9_1202_TrMRF] | 1.39 ± 0.11 |
| SAGGSAGGSASMTSSVSTSLNPDNPPVVLVTTTYPDGTVTLTVKDLSTGTTTSTTTTPLPSSAGGSAGGSAG [r3_299_JUSTAS] | 1.17 ± 0.042 |
| SAGMTIRIVVPKKDMSVEELAKKLKEELGLPEDAKVTIKVEKLPNGELVLTITVPSEEERKKIEELLKSAGG [r19_215_TrROS_Hall] | 2.9 ± 0.13 |
| SAGGEKVVLEIVLPPELENLTPEELEALKNITLPNGFKITDIELVEENGRLVIRITVDSPEAAEALLKSAGG [r13_269_TrROS_Hall] | 2.04 ± 0.086 |
| SAGGGKKNKIVAVDEEGNEIVFDIDADIDTVFEAIKKLFPNKEIEVDEVIEFEGYPDYVVVFVKIPKKSAGG [r13_832_TrMRF] | 1.72 ± 0.14 |
| SAGGSAKKPKPIYLKLTITLSEEEAKKLAEELAEELKKLFPDVEIVEIKVEKDENGNVTVTIYVRLSAGGSA [r15_718_TrROS_Hall] | 3.14 ± 0.22 |
| GLAPRVYEVDALVTDENGVPRLYRVLVVETPLPDGTYRAVAFARDLDTTETRVLTLVSDRAVIGPDVPLTAS [r1_14_TrMRF] | 2.07 ± 0.044 |
| SALDAKEIAEEFMKKFPPNFRDITVDVENTGNKRKIKIMFRMPNRYWTQEFDLDDGKIEIEPINPGQPLSAG [r14_737_TrROS] | 0.862 ± 0.091 |
| SADIKIDVTYRRSPGEGRYTMTVRVELPDGKKLAEIPITMPADDPGMSPRQMREWARPIVKKLAKEGLISAG [r14_120_TrROS] | 0.537 ± 0.12 |
